Reference: the supplement of paper PMC12764529
± gives the half width of the 95% confidence interval.

How the values were obtained:
[1] = folding stability dG unfold (combined trypsin and chymotrypsin); higher = more stable
Procedure, shortened: (§1)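 Unfolding free energy was derived, per protease or combined, by relating Bayesian-fitted K50 values from sequencing counts to a sequence-predicted unfolded-state K50 and a shared folded-state K50. The underlying digests exposed cysteine-free mini-proteins under 80 residues, in a PA-tagged cDNA display construct, to trypsin and chymotrypsin at 11 threefold-diluted concentrations and to a no-protease condition. A filter kept only designs with AlphaFold2 dimer inter-PAE above 15.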

[2] = folding stability dG unfold from chymotrypsin proteolysis; higher = more stable
Procedure, shortened: as §1

[3] = folding stability dG unfold from trypsin proteolysis; higher = more stable
Procedure, shortened: as §1

Sequence	folding stability dG unfold [1] [kJ/mol]	folding stability dG unfold [2] [kJ/mol]	folding stability dG unfold [3] [kJ/mol]
SAGGSAGGSGEVLLLSANSFSFSEGDGLLVVVNLPNGGYVVLPFKKGDLNLNLPSSGYSEFFGSAGGSAGGS [r12_746_TrMRF]	6.64 ± 0.243	7.5 ± 0.192	5.46 ± 0.142
SAGGSAGGSGFPVRLKIWDPDETYTYTVPMDPDNVQKFAEELGEKNFNIETEPNGWATITIPKSAGGSAGGS [r12_292_TrROS]	2.98 ± 0.92	3.98 ± 0.628	1.97 ± 0.335
SAGGSAGGSGGKPLLIFTAMNGPEAEELVKKLLEEGGAGPIVAVVIPAPKDDPLFKEFFEKLKSAGGSAGGS [r12_649_TrMRF]	5.63 ± 0.586	6.17 ± 0.222	3.91 ± 0.305
SAGGSAGGSGGMMPVTLTITPVNPPGASTSSTTIPVNFTSPEEAAAAKEKIAAELPSNATVTGSAGGSAGGS [r20_211_JUSTAS]	0.157 ± 0.301	-4.62 ± 1.67	1.85 ± 0.0397
SAGGSAGGSGIPVEPIPVRNPKGEIVEVIRFPEDFALVVFPSGERALLRGPELSLRDVVFFPLSAGGSAGGS [r12_491_TrMRF]	2.23 ± 0.23	1.28 ± 0.226	2.82 ± 0.0962
SAGGSAGGSGITPAAKKIAAEIEKKYPNEKIKVEEELLPNGYLKIKVTTDNGKKYEIIIKVGGSAGGSAGGS [r20_210_TrMRF]	13.5 ± 0.322	14.7 ± 0.222	10.5 ± 0.502
SAGGSAGGSGMAVSVSVTPVRLPDGSVRLVISFSSGSTVVLDLPESEWTPEQVEALVAELVSASAGGSAGGS [r12_218_JUSTAS]	16.3 ± 0.243	16.3 ± 0.201	16 ± 0.322
SAGGSAGGSGMSPEALAIKEQVKAEHPDLRVEVKEKILPNGTLEITVTFDDGTTETYTIPIGESAGGSAGGS [r20_210_JUSTAS]	13.8 ± 0.36	14.1 ± 0.201	12.6 ± 0.544
SAGGSAGGSGMTAEEAREKKVAELKAQGYTPVKVEVVETRTDPATGKVTTKIKIEYKSPKGLTSAGGSAGGS [r20_46_JUSTAS]	1.15 ± 0.586	1.39 ± 0.502	0.38 ± 0.339
SAGGSAGGSGMTVVTLEAEPETAEEAVAAAIQAIRDALPADETIASVEVSFDPATGKVTVVVESAGGSAGGS [r12_308_JUSTAS]	7.54 ± 0.502	8.41 ± 0.176	3.17 ± 0.213
SAGGSAGGSGMVEEEEYEDPATGVRTRTTTTYLPNGTVVRTPVVYTPDRPVEEVPTVTPIPSGSAGGSAGGS [r20_88_JUSTAS]	4.01 ± 0.879	2.6 ± 0.544	4.35 ± 0.314
SAGGSAGGSGPELRPPDVPSTTVPLKVSPEEAKEILKELLGLPEDVEVPFGSIDPATGVITLVSAGGSAGGS [r12_815_JUSTAS]	4.31 ± 0.502	3.69 ± 0.176	5.22 ± 0.381
SAGGSAGGSGPKPRLIKLTFLLEPGKVEEFAQALRDAGFEIVSVEVEPLPDGGERATVTVRIDSAGGSAGGS [r12_905_TrMRF]	14.9 ± 0.259	16 ± 0.293	11.8 ± 0.389
SAGGSAGGSGPNIKVSSSTSTYTLPNGKKVTVKTIVIETENSKYLIVVLTDPNGKSIVFIKPLSAGGSAGGS [r12_213_TrMRF]	16.3 ± 1.17	16.4 ± 0.628	13.4 ± 0.962
SAGGSAGGSGSLLEKLGLEPNSTVTVTVTPEEAEKIRAEPRVKEIKREPTPEDTYLYTITVVASAGGSAGGS [r12_750_JUSTAS]	-1.26 ± 1.17	0.0856 ± 0.837	-2.95 ± 1.34
SAGGSAGGSGSMEFTIDDEDLRIEIKFLPGGKVEITIWDPTNNVPLKTIETEPEEIEEVIEKLSAGGSAGGS [r20_129_JUSTAS]	9 ± 0.343	8.6 ± 0.201	9.13 ± 0.711
SAGGSAGGSGSMSIPVGSPEALREYLRERLPPEADLSEEELEALVEELLAKASIDSDGRLHLASAGGSAGGS [r12_983_JUSTAS]	8.59 ± 0.222	9.232 ± 0.0502	6.89 ± 0.163
SAGGSAGGSGSMTTTTDPNSDITVSSIGSPSGPPVTATLNPKTGTVTVTVGGTPVTIPLDALSSAGGSAGGS [r12_650_JUSTAS]	4.13 ± 0.188	5.54 ± 0.142	1.39 ± 0.247

Sequence	folding stability dG unfold [1] [kJ/mol]	folding stability dG unfold [2] [kJ/mol]	folding stability dG unfold [3] [kJ/mol]
SAGGSAGGSGSSSLLEETTDASGVRHLLTLVRLPGGKVLLVTTTVYPSGESTTTTEETDGSLLSAGGSAGGS [r12_995_JUSTAS]	8.84 ± 0.247	6.39 ± 0.151	10.8 ± 0.251
SAGGSAGGSGSSSMPVTVEVKPLATEVDPSNGLVTVTELVTVTRGDTTTLTVTTTTLPPGAPASAGGSAGGS [r12_1010_JUSTAS]	2.47 ± 0.41	0.00155 ± 0.268	4.84 ± 0.113
SAGGSAGGSGSSTSANAGGIVTSSSTVPLPPDTRPVSVSTSTPSSKPVKTTVLPDKTVTTPLGSAGGSAGGS [r12_994_JUSTAS]	5.76 ± 0.201	6.5 ± 0.117	4.22 ± 0.146
SAGGSAGGSGVEITLPNKDELIEYLKKKFAEKGGKIKKIKIEPIGPNMYKALIETDPNDPYFKSAGGSAGGS [r12_647_TrMRF]	2.56 ± 0.544	2.23 ± 0.711	3.18 ± 0.289
SAGGSAGGSGYTTTTSTSISLSPTSFTVTTTTTTTDPVTKTTTVTTTTTTVPLPPSLLSLVSSSAGGSAGGS [r12_885_JUSTAS]	10.5 ± 0.837	12.4 ± 0.218	9.25 ± 0.711
SAGGSAGGSIEIFKSPEGWYVRIWFPGKPQVIPIDDAEDLKNFEIPIPNGRPIKVEILPPKDLSAGGSAGGS [r12_730_TrROS]	8.89 ± 0.247	9.69 ± 0.134	6.95 ± 0.197
SAGGSAGGSIFIHWTYEMEHERDPDDPDEPRMKMKIKDWVISIPEDDPDKLKELADKLGIPIISAGGSAGGS [r12_249_TrROS]	5.19 ± 0.46	7.09 ± 0.285	2.41 ± 0.364
SAGGSAGGSIKIPPGQMIHIRYEHGGKKREYSFTIDPNDGKIDEIIPPDNLPGYKIEEIHIVPSAGGSAGGS [r12_6_TrROS]	1.29 ± 1.42	3.05 ± 1.26	-1.8 ± 1.38
SAGGSAGGSIKITIYDIMRMLGPNAPPAEWVEKVKHLAKWLADKLGLPDVEIEVEVMSPDQFPSAGGSAGGS [r12_666_TrROS]	17 ± 0.711	18.8 ± 0.544	13.8 ± 1.05
SAGGSAGGSILVIKIKFPGNGRPIHYPIKDPEDFDRVLKKAKERFPGYDKDNIKEAEIYPLPPSAGGSAGGS [r12_852_TrROS]	-0.291 ± 0.711	-0.0288 ± 1.21	-1.82 ± 0.92
SAGGSAGGSISIDPAKVLEVKTRANGQLLITTEDEVYVVDPSTGTVTKITKEEAEKLPEDVPLLSAGGSAGG [r6_890_JUSTAS]	8.21 ± 0.628	8.11 ± 0.155	7.97 ± 0.176
SAGGSAGGSITPEEAKALAEEIKKALGVPDVEVLEIRVERDPERDFYTADIVIRLPDGSVIRASAGGSAGGS [r12_508_TrMRF]	7.12 ± 0.46	4.35 ± 0.268	8.56 ± 0.213
SAGGSAGGSITVEVEVEIVDEVEDPNTQGYRPVRVSRIPITIPVPESWSEEDIEAAVKEAIEKASAGGSAGG [r6_494_JUSTAS]	7.11 ± 0.628	8.89 ± 0.092	4.62 ± 0.197
SAGGSAGGSIVFRSPEQAKEWLDNFPPGNEVNIHVQGPDTGQPQEFEIKIPPPKPEYDPDGKPSAGGSAGGS [r12_393_TrROS]	-0.708 ± 1.34	-3.24 ± 2.26	-0.518 ± 0.368
SAGGSAGGSKAGQPIEGPVKIKFTSNGKPHEIDVEVYVLPPGNLIIYFPDESIMLPADNIEIESAGGSAGGS [r12_790_TrROS]	6.69 ± 0.264	7.98 ± 0.326	4.57 ± 0.301
SAGGSAGGSKEEIRKRIAERLRELIPDAKITSIEFDEKTKKITITVDSPEVREALEKLPGIKPSAGGSAGGS [r12_623_TrROS_Hall]	6.39 ± 0.46	6.82 ± 0.368	6.25 ± 0.155
SAGGSAGGSKEKVIEIKIKVKTKEEAKKKAEELAKELEKKGYKIKKVEIKYDKETKEVTVRIESAGGSAGGS [r20_155_TrROS_Hall]	16.5 ± 0.502	16.8 ± 0.406	16.3 ± 0.837
SAGGSAGGSKEKYIKIVVEVNGEKKVIVVKAKTIEELEELAKKLNLEVEIEKREDGYLVIRLKSAGGSAGGS [r12_810_TrROS_Hall]	13.8 ± 0.243	14 ± 0.243	13.4 ± 0.222
